# Changes are numbered by the printed parent chain.
# T1: membrane-bound CNTFR (m-CNTFR), full-length human CNTFR (amino acids 1-372) (human, UniProt P26992 23-342)
# T1 construct: whole, on cells; also called full-length CNTFR; CNTFR on HepG2/CNTFR cells
# T1 sequence (looked up): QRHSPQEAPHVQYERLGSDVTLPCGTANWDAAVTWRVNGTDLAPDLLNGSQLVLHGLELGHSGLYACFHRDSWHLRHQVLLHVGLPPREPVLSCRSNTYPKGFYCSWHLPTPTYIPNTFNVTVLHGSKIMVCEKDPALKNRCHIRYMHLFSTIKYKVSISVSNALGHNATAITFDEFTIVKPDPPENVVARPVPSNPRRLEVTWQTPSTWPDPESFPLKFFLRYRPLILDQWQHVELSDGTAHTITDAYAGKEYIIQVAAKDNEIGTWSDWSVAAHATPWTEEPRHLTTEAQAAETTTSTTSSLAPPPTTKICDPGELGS
# T2: soluble CNTFR (s-CNTFR) (UniProt P26992 23-346, limits assumed)
# T2 sequence (looked up): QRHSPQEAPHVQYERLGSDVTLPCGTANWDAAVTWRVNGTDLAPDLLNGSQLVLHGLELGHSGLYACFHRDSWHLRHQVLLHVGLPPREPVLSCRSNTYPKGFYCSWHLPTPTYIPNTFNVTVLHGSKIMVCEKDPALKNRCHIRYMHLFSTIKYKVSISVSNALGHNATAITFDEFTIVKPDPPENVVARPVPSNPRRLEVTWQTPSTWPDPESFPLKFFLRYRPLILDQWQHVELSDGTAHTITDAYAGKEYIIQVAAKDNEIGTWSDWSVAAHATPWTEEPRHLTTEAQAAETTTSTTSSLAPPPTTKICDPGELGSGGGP
# T3: solid phase-immobilized CNTFR (UniProt P26992 23-342, limits assumed)
# T3 construct: also called CNTF alpha-receptor
# T3 sequence (looked up): T1 sequence (looked up)
# B1: human ciliary neurotrophic factor, wild type (hCNTF; SEQ ID NO: 1) (ligand)
# chain: MAFTEHSPLTPHRRDLCSRSIWLARKIRSDLTALTESYVKHQGLNKNINLDSADGMPVASTDQWSELTEAERLQENLQAYRTFHVLLARLLEDQQVHFTPTEGDFHQAIHTLLLQVAAFAYQIEELMILLEYKIPRNEADGMPINVGDGGLFEKKLWGLKVLQELSQWTVRSIHDLRFISSHQTGIPARGSHYIANNKKM
# notes: also called human CNTF; wild-type CNTF
# B2: Thr169Ile/His174Ala/human CNTF (IA-CNTF; SEQ ID NO:2) (ligand)
# chain: B1 chain with T169I, H174A
# notes: Produced in E. coli, purified by reverse-phase HPLC; also called Thr169Ile/His174Ala/hCNTF
# Key:
# [1] = target: T1, membrane-bound CNTFR (m-CNTFR), …; assay: CNTF surface binding on HepG2 cells stably transfected with full-length human CNTFR
# [2] = target: T2, soluble CNTFR (s-CNTFR); assay: cell-based or functional assay
# [3] = target: T3, solid phase-immobilized CNTFR; assay: competition with biotinylated CNTF for binding to solid phase-immobilized CNTFR
# Procedure: The CNTFR binding activity of CNTF and IA-CNTF was determined by measuring the ability of the proteins to compete with biotinylated CNTF for binding to solid phase-immobilized CNTFR, using a previously described procedure (Saggio et al., 1994; Saggio et al., 1995).
binding result [1],stimulation of haptoglobin production in HepG2 cells at a subsaturating concentration of s-CNTFR; EC50 relative to CNTF [2],fold reduction of affinity against wild-type CNTF [3] [fold],Binder
binds,–,–,B1
–,5 fold (EC50 relative to CNTF),15,B2

# From patent US6660467 (INSTITUTO DI RICERCHE DI BIOLOGIA MOLECOLARE P ANGELETTI S …, dated 2003)
